{"source": "the nanobody polyreactivity screen of Harvey et al. (2022)", "data": [{"experiment": "yeast display, Sf9 membrane polyspecificity reagent, FACS + sequencing; frameworks hold sequencing errors", "summary_of_the_method": "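In a synthetic yeast display library (Saccharomyces cerevisiae BJ5465), nanobody expression was induced with galactose for 36–48 hours. FACS gates were set low and high (top ~1%) using anti-HA fluorescence for expression and streptavidin fluorescence for binding of the Sf9 membrane reagent. Each polyreactivity label is drawn from the gate of origin.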", "values": [{"sequence": "QVQLVESGGGLVQAGGSLRLSCAASGSTFTPYAMGCYRQAPAKERELVAAINGGGTRTYYADSVKGRFTISRDHAKNTVFLQMNSLKPVDTAVYYCAARTSTSRSYPYNYWGQGTQVTGSS", "polyreactivity (PSR sort gate)": "high polyreactivity"}, {"sequence": "QVQLVESGGGLVQAGGSLRLSCAASGSTFTDYTMGWYRQAPGKERELVAVISQSGGSTYYADSVKGRFTISRDNAKNTVYLQMNSLKPEDTAVYYCAADPREDNQDRYYWGQGTQVTVSS", "polyreactivity (PSR sort gate)": "high polyreactivity"}, {"sequence": "QVQHVESGGGLVQAGGSLRVSCAASGFIFSAYAMGRYRKATGKERELVAAISSGGSTYYADSVKGRFTISRDNAKNTVYLQMNSLKPEDTEVYYCAAVYTGRYRYDYWGQGTHVTVSS", "polyreactivity (PSR sort gate)": "low polyreactivity"}, {"sequence": "QVQLVESGGGLVQAGGSLRLSCAASGRIDLDYDMGWYRPAAGKERELVATISSGGSTNYADSVKGRFTISRDNAKNTVYLQMNSLKPDDTAVYYCNKDYHVRYYYWGQGTQVTVSS", "polyreactivity (PSR sort gate)": "low polyreactivity"}, {"sequence": "QVQLVESGGRLVQAGGSLRLSCAASGFTFPVYAMGWYRQAPGKERELVAVIRLTGGRTYYADSVKGRFTISRDNAKNTVYLQMNSLKPVDTAVYYCAAGSRSGYGYWGQGTQVTVSS", "polyreactivity (PSR sort gate)": "high polyreactivity"}, {"sequence": "QVQLVESGGGLVQAGGSLRLSCAASGRTFRRYAMGWYRQAPGKERELVAAISKSGGRTYYADSVKGRFTISRDNAKNTVYLQMNSLKPEDTAVYYCAADHIQTAGGDYWGQGTQVTVSS", "polyreactivity (PSR sort gate)": "high polyreactivity"}, {"sequence": "QVQLVESGGGLVQAGGSLRLTCAASGSTFYTYAMGWYRQAPGNERELVAALSYGGGITYYADSVKGRFTISRDNEKNTVYIQMNSLKPEDTAVYYCAAVNGWQRYEFWGQGTQVTVSS", "polyreactivity (PSR sort gate)": "high polyreactivity"}, {"sequence": "QVQLVESGGGLVQAGGSLRLSCAASGSTFEYNAMGWYRQAPGKERELVASSTNYADSVKGRFTISRDNAKNTVYLQMNSLKPDDTEVYYCARDRYYTREWYWYRHDHWGQGTQVTVSS", "polyreactivity (PSR sort gate)": "low polyreactivity"}, {"sequence": "QVQLVESGGGLVQAGGSLRLSCAASGFTFVGNAMGWYRQAPGKERELVATITSGGNTKYADSVKGRFTISRDNAKNTVYLQMNSLKPEDTAVYYCAAAKYNYRRFNYWGQGTQVTVSS", "polyreactivity (PSR sort gate)": "low polyreactivity"}, {"sequence": "QVQLVESGGCLVQAGGSLRLSCSASGSTITYYAMGWYRQAPGKERELVAAISGRGGRTDYADSVKGRFTISRDNAKNTVYLQMNSLKPEATAVYYCARAGRVQPGSEDDYWGQGTQVTVSS", "polyreactivity (PSR sort gate)": "high polyreactivity"}, {"sequence": "QVQLVESGGGLVQAGGSLRLSCAASGLTFLGNAMGWYRQAPGKERELVASITFSGDSTYYADSVKGRFTISRDNAKNSVYLQMNSVKPEDTAVYYCAADGSRLYYWPFEYDYWGQGTQVTVSS", "polyreactivity (PSR sort gate)": "low polyreactivity"}, {"sequence": "QVQLVETGGGLVQAGGILRLSCAATGSIFKAYDMGWYRKAPAKERELVAAITWSGGSTYYADSVKGRFTISRHNAKNTVYLQMNSLKPEDTAVYYCAAKLGLWAYYLYDYWGQGTQVTVSS", "polyreactivity (PSR sort gate)": "low polyreactivity"}, {"sequence": "QVQLVESGGGFVQAGGSLRLSCAASGSTFAYYAMGWDRQAPGKERELVAAITRGGRTYYADSVKGRFTISRDNPKNTVYLQMNSQKPDDTAVYYCNARKYTWYSSRFIRFDYWGQGTQVTVSS", "polyreactivity (PSR sort gate)": "high polyreactivity"}, {"sequence": "QVQLVESGGGLVQAGCSLRLSCAASGSIFKQNTMGWYRQAPGKERELVAAISSGGSTYYADSVKGRFTISRDNAKNTVYLQMNSLKPEDTAVYYCAAVTVIGGEYDYWGQGTQVTVSS", "polyreactivity (PSR sort gate)": "low polyreactivity"}, {"sequence": "QVHLVESGGGLVQAGGSLRLSCAASGRTFVFNAMGWYRQAPGKEREFVAAITWGGGSTYYADSVKGRFTISRDNAKNTVYLQMNSLKPEDTADYYCARPTTYGYYYWGQGTQVTVSS", "polyreactivity (PSR sort gate)": "high polyreactivity"}, {"sequence": "QVQLVESGGGLVQAGGSLRLSCAASGRTLYNYAMGWYRQAPGKERELVAAISSSGSTNYADSVKVRFTISRDNAKNTVYLQMNSLKPEDTAVYYCAKGYPWRYSIMDYWGQGTQVTVSS", "polyreactivity (PSR sort gate)": "low polyreactivity"}, {"sequence": "QVQLVESGGGLVQAGGSLRLSCAASGSNLVHYAIGWYRQAPGKERELVAASSRGGSTNYADSVKGRFTISRDNAKNTVYLQMNSLKPEDTAVYYCAARRPWGEYYWGQGTQVTVSS", "polyreactivity (PSR sort gate)": "low polyreactivity"}, {"sequence": "QVQLVESGGGLVQAGGSLRFSCAASGSTFTVYAMGWYRQAPGQERELVAAITNGGRTYYADSVKGRFTISRDNAKNTVYLQMNSLKPEDTAVYYCAADVYYDDYLYDYWGQGTQVTVSS", "polyreactivity (PSR sort gate)": "high polyreactivity"}, {"sequence": "QVQLVESGGGLVQAGGSLRLSCAASGITFIGYVMGWYRQAPGKERELVAAISRSGASTYYADSVKGRFTISRDNAKNTVYLQMNSLKPEDTAVYYSATVRYHPAYYYWGQGTQVTVSS", "polyreactivity (PSR sort gate)": "high polyreactivity"}, {"sequence": "QVQLVESGGGLVQAGGSLRLSCAASGGIFDRYAMGWKRQAPGKERELVAVISGSVNTYADSVKGRFTISRDNAKNTGYLRMNSLKPEDTAVYYCATQFEGPSGFNYWGQGTQVTVSS", "polyreactivity (PSR sort gate)": "low polyreactivity"}, {"sequence": "QVQLVESGGGLVQAGGSLRLSCAASGSTFYYNGMGWYRQAPGKERELVAVISISGGSTYYADSVKGRFTISRDNAKNTVYLQMNSLKPEDTAVYYCATSYVGRSAYRSYGARGGYWGQGTQVTVSS", "polyreactivity (PSR sort gate)": "low polyreactivity"}, {"sequence": "QVQLVESGGGLVQAAGSLRLSCAASGRTFRAYAMGWYRQAPGKERELVAAISNRGTRTYYADSVKGRFTISRDNAKNTVYLQMNSLKPEDTAVYYCAAGNRVNRFDYWGQGTQVTVSS", "polyreactivity (PSR sort gate)": "high polyreactivity"}, {"sequence": "QVQLVESGGGLVQAGGSLRLSCAASGFIFATNTMGWYRQAPGKERELVAASSTYYADSVKGRFTISRDNAKNTVYLQMNSLKPEDTAVYYCNADRDSYIGFVVWAGEYWGQGSQVTVSS", "polyreactivity (PSR sort gate)": "low polyreactivity"}, {"sequence": "QVQLVESGGGLVQAGGSLRLSCAASGSIFSINTMGWYRQAPGKERELVAAITRSGSGTYYADSVKGRFTISRDNAKNTVYLQMNSLKPEDTAVYYCAKSTAVKPYAYRESGFIYDYWGQGTQVTVSS", "polyreactivity (PSR sort gate)": "low polyreactivity"}, {"sequence": "QVQREESGGGLVQAGGSLRLSCAASGSTFDGNSMGWYTQAPGKERELVAAIRKSGGRTYYADSVKGRFTISRDNAKNTVYLQMNSLKPDDTAVYYCAAYERGFTYRRYYWGQGTQVTVSS", "polyreactivity (PSR sort gate)": "high polyreactivity"}, {"sequence": "QVQLVESGGGLVQAGGSLRLSCAASGLTFYAYAMGWYRQAPGKERELVAGISRSGGRTYYADSVKGRFTISRDNAKNTVYLQMNSLKPEDTAVYYCAAGIPVTSRFYGMDWGQGTQVTVSS", "polyreactivity (PSR sort gate)": "high polyreactivity"}, {"sequence": "QVQLVESGGGLVQAGGSLRLSCAASGRIFSRNDMGWYRQSPGKERELVAAITRIGGSTYYADSVKGRITISRDNAKNTVYLQMNSLKPEDNAVYYCAARGSGKYGWGQGSQVTVSS", "polyreactivity (PSR sort gate)": "high polyreactivity"}, {"sequence": "QVQLVESGGGLVQAGGSLRLSSAASGRIFTINAMGWYRQAPGKERELFASSRSTGGSTYYADSVKGRFTISRDNAKNTFYLQMYSLKPVDTAVYYCDAQYANSIDYRSSYRRDYWGQGTQVTVSS", "polyreactivity (PSR sort gate)": "low polyreactivity"}, {"sequence": "QVQLVESGGGLVQAGGSLRLSCAASGFTFDQYTMGWYRQAPGKERELVAAISSSGGSTYYADSVKGRFTISRDNAKNTVYLQMNSLKPEDTAVYYCAARFLLTQRVSHDYRGQGTQVTVSS", "polyreactivity (PSR sort gate)": "low polyreactivity"}, {"sequence": "QVQLVESGGGLVQAGGSLRLISAASGRTFRVYAIGWYRPAPGKEREFVATISVRGGSTYYADSVKGRFTISRDNAKNTVYLQMNSLKPEDTAFYYCAADSYPYVYALYDYWGQGTQVTVSS", "polyreactivity (PSR sort gate)": "low polyreactivity"}, {"sequence": "QVQLVESGGGLVQAGGSLRLSCSASGSTFGRYVMGWYRQPPGKERELVAAISKNAGSTYYADSVKGRFTISRDNAKNTVYLQMNSLKPEDTAVYYCNTVYYWYSPLNYWGQGTQVTVSS", "polyreactivity (PSR sort gate)": "high polyreactivity"}, {"sequence": "QVQLVESGGGLVQAGGSLRLSCAASGSIFYHYAMGWYRQAPGKERELVAGITSSGDRTHYADSVKGRFTISRDNAKNSVYLQMNSLKPEDTAVYYCNTATIHGTAYDYWGQGTQVTVSS", "polyreactivity (PSR sort gate)": "low polyreactivity"}, {"sequence": "QVQLVESGGGLVQAGGSLRLSCAASGLIFGPYAMGWYRQAPGKERELLAASWRGGSTYYADSVKGRFTISRDNAKNTVFLQMNSLKPEDTAVYYCAADVIYSLYYYWGQGTQVTVSS", "polyreactivity (PSR sort gate)": "low polyreactivity"}, {"sequence": "QVQLVESGGGLVQAGGSLRLSCAASGSIFYVYAMGWYRQSPGKERELVAAITSSGTTNYADSVKGRFTISRDNAKNTVYLLMNSLKPEDSAVYYCAADPDSGHVRFDYWGQGTQVTVSS", "polyreactivity (PSR sort gate)": "low polyreactivity"}, {"sequence": "QVQLVESGGGLVQAGGSLRLSCAASGFTFRVNAMGWYRQAPGKERELVAASSSGGRTYYADSVKGRFTISRDNAKNTVYLQMNSLKPEDTAVYYCNAGRVRHGNDYWGQGTQVTVSS", "polyreactivity (PSR sort gate)": "high polyreactivity"}, {"sequence": "QVQLVESGGGLVQAGGSLRLSCAPSGSIFAQYAMGWYRQAPGKERELVATISSVGSTNYADSVKGRFTISRDNAKNTVYLQMNSLKPEDTAVYYCNAVRSGWGYFYGLNYWGQGTQVTVSS", "polyreactivity (PSR sort gate)": "low polyreactivity"}, {"sequence": "QVQLVESGGGLVQAGGSLRLSCAASGLIFYRNAMGWYRQAPGKERELVAAISKNGGNTYYADSVKGRFTISRDNAKNTVFLQMNSLKTEDTAVYYCAARELYGPFGYWGQGTQVTVSS", "polyreactivity (PSR sort gate)": "high polyreactivity"}, {"sequence": "QVQLVESGGGLVQAGGSLRLSCAASGSIFDTYAMGWYRQAPGKERELVAAITWGGGRTYYADSVKGRFTISRDNAKNTVYLQMNSLKPEDTAVYYCAARWRLRGGNQRYGYWGQGTQVTVSS", "polyreactivity (PSR sort gate)": "high polyreactivity"}, {"sequence": "QVQLVESGGGLVQAGGSLRLSCAASGSTFGYYAMGWYRQAPGKEMELVAAITSGASTNYADSVKGRFTISRDNAKNTVYLQMNSLKPEDTAVYYCAADFLSPAYRPSWYRFDYWGQGTQVTVSS", "polyreactivity (PSR sort gate)": "low polyreactivity"}, {"sequence": "QVQLGESGGGLVQAGGSLRLSCAASGRIFISKTMGWSRQAPGKERELVAAITSSGRTYYADSVKGRFTISRDNAMNTVFFQMNSGKPEDTADYYCAADSYSGNDRRRGFDYWGQGTQVTVSS", "polyreactivity (PSR sort gate)": "low polyreactivity"}, {"sequence": "QVQLVESGGGLVQAGGSLRLSCAASGSIFRHNAMGWYRQAPGKERELVAAITSRGGSTYYADSVKGRFTISRDNAKNTVYLQMNSLKPEDTAVYYCAAGGHYYSSPGYNYWGQGTQVTVSS", "polyreactivity (PSR sort gate)": "high polyreactivity"}, {"sequence": "QVQLVESGGGLVQAGGSLRLSCADSGSILIHYTMGWYRQEPGKERELVAAISSTGGSTYYADSVKGRFTISRDNAKNTVYLQMNSLKPEDTAVYYCATGPHQPPYSYLDYDYWGQGTQVTVSS", "polyreactivity (PSR sort gate)": "low polyreactivity"}, {"sequence": "QVQLVESGGGLVQAGRSLRLSCAASGRIFISYTMGWYRPAPGKERELVAGIDSSGTSTYYADSVKGRFTISRDYAKNTVYLQMNSLIPEDTAVYYCNVVGNWKDTSTELDYWGQGTQVTVSS", "polyreactivity (PSR sort gate)": "low polyreactivity"}]}]}
